{"source": "paper PMC12242765", "about": "“CDK-driven phosphorylation of TRAIP is essential for mitotic replisome disassembly and MiDAS” (Nucleic Acids Research, 2025)", "key": {"[1]": {"molecular_target": "the molecule itself", "experiment": "SEC + other: glycerol gradient sedimentation; Superdex 200 Increase 3.2/300 (Stoke's radius 62.77 Å) and 20%-40% glycerol gradient in LFB1/100 (5.105 S), combined by the Siegel-Monty method; apparent molecular size; monomer to dimer"}, "[2]": {"molecular_target": "the molecule itself", "experiment": "SEC; Superdex 200 Increase 3.2/300, 20 μl/min; TRAIP-wt and CDK1/Cyclin B-phosphorylated TRAIP-wt loaded one at a time; fractions blotted with TRAIP antibodies"}}, "data": [{"protein": "His6-SUMO-tagged X. laevis TRAIP-wt (enzyme, UniProt Q6NRV0 1-464, looked up, TRAIP ubiquitin ligase, Xenopus laevis, wild type; SUMO-TRAIP is said to be 65 kDa; also called His6-SUMO-TRAIP-wt; His-SUMO-TRAIP; source: E. coli Rosetta (DE3) pLysS, pCA528 vector, purified (Ni-NTA; Mono Q for the gel filtration); not shown: His6, N-terminal, kept; SUMO, N-terminal, kept) MPIRAYCTICSDFFDNARDVAAITCGHTFHQECLLQWFHSAPHRTCPQCRIQVSSRQIINKLFFDIGGEEETVLDAESLKNEVDRIKASLLVKEKEKRECQGLVDSLREMLDVRNVTIQSQQKELGDMEMLCSTLKKQIKFLDKQQSETKAAKDEARKLRNKLKTMESIEVLLQSQRSEVEEMIRDMGSGQAAVEQLAIYCVSLKKEYENLKEVRKSSAEMTEKLRKELFSSNHKAQKAELELTKVREELSASQKELHSADKEIMSLKKKVEFLQKTLTTPTASNEAISRLIFESPAPIGLERPKLRPPMMGNDINLDVTFDIDTPEHNTQKSVVAPFKKMKFDNKEHPLSSPTKNPLQESKGLMSWAGGRTGADEDDDLTLPSFIKNSLLHKKPVGSLLGLRQNTGAVRTGFDGLGGRTKFIQPSNLTEIRPLHQKMKRKKVSRPTACTSSLANQPRLEDFLK", "values": [{"measurement": "stoichiometry N", "setting": "[1]", "result": 2}]}, {"protein": "phosphorylated His6-SUMO-TRAIP-wt (in vitro phosphorylated with CDK1/Cyclin B) (enzyme, X. laevis, UniProt Q6NRV0 1-464, looked up, phosphorylated in vitro by CDK1/Cyclin B; mutation of T280, S295 and S352 to alanine (TRAIP-3A) abolishes this phosphorylation, TRAIP ubiquitin ligase, Xenopus laevis, wild type, as m1; the sites phosphorylated in vitro were not mapped one by one; T325 is discussed as a possible fourth site; also called phosphorylated TRAIP-wt; phosphorylated TRAIP; source: E. coli Rosetta (DE3) pLysS, purified (Ni-NTA, Mono Q), then phosphorylated in vitro with CDK1/Cyclin B; not shown: His6, N-terminal, kept; SUMO, N-terminal, kept) MPIRAYCTICSDFFDNARDVAAITCGHTFHQECLLQWFHSAPHRTCPQCRIQVSSRQIINKLFFDIGGEEETVLDAESLKNEVDRIKASLLVKEKEKRECQGLVDSLREMLDVRNVTIQSQQKELGDMEMLCSTLKKQIKFLDKQQSETKAAKDEARKLRNKLKTMESIEVLLQSQRSEVEEMIRDMGSGQAAVEQLAIYCVSLKKEYENLKEVRKSSAEMTEKLRKELFSSNHKAQKAELELTKVREELSASQKELHSADKEIMSLKKKVEFLQKTLTTPTASNEAISRLIFESPAPIGLERPKLRPPMMGNDINLDVTFDIDTPEHNTQKSVVAPFKKMKFDNKEHPLSSPTKNPLQESKGLMSWAGGRTGADEDDDLTLPSFIKNSLLHKKPVGSLLGLRQNTGAVRTGFDGLGGRTKFIQPSNLTEIRPLHQKMKRKKVSRPTACTSSLANQPRLEDFLK", "values": [{"measurement": "binding result", "setting": "[2]", "result": "binds"}]}]}
